Reference: article PMC1361355
pKd: −log10 of the molar value.

Assays:
ephrinB2 (Homo sapiens) = ephrinB2 (Homo sapiens) (UniProt P52799); details: cited from earlier work
[1] = biological target: human ephrinB2 stably expressed on CHO-pgsA745 cells (CHO-B2) (human) (UniProt P52799); test: flow cytometry on cells

Chain of ephrinB2 (Homo sapiens) (P52799 28-229): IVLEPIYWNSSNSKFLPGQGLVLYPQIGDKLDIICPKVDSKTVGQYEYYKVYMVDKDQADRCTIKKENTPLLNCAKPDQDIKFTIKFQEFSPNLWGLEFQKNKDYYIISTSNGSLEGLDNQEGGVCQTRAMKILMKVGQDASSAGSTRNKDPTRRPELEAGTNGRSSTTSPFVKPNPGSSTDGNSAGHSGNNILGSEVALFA
Chain of EphB4 (P54760 16-539): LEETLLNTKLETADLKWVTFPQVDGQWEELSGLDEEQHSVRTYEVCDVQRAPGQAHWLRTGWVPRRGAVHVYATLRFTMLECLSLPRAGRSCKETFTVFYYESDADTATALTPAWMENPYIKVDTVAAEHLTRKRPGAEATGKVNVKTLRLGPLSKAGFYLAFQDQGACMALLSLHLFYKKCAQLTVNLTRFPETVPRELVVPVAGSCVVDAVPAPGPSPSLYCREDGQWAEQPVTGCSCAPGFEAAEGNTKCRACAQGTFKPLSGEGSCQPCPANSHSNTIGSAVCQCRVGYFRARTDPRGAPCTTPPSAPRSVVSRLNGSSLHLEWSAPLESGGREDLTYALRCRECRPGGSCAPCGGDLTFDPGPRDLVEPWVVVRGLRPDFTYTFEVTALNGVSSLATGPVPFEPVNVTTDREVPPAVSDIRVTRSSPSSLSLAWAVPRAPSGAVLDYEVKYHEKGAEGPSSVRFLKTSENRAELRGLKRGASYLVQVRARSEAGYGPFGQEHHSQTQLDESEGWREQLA

| Substance | pKd (ephrinB2 (Homo sapiens)) | pKd [1] |
| --- | --- | --- |
| EphB4 (from UniProt P54760) | 9.30 | – |
| NiV-G-Fc, a fusion construct between the ectodomain of NiV-G and the Fc region of human IgG1 (from UniProt Q9IH62 71-602) (Fc fusion) | – | 10.22 |
